Measurements as given in paper PMC10183829, “Shuffled ATG8 interacting motifs form an ancestral bridge between UFMylation and autophagy” (The EMBO Journal, 2023).
Positions count from the first letter of the chain named.

Key:
HsUFM1 = assay: Isothermal titration calorimetry, HsUFM1 titrated with HsC53wt; format: binding, Homo sapiens; conditions: 40 μM HsUFM1 in cell, 300 or 550 μM HsC53wt in syringe
Protocol: (§1) All experiments were carried out at 25°C in 50 mM sodium phosphate buffer pH 7.0, 100 mM NaCl, using the PEAQ‐ITC Automated (Malvern Panalytical Ltd). For protein–protein interactions, the calorimetric cell was filled with either GABARAP or HsUFM1 and titrated with either HsC53 wt, HsC53 sAIM, HsC53 cAIM, or HsUBA5 LIR. A single injection of 0.4 μl of HsC53 or AtC53 IDRs (not taken into account) was followed by 18 injections of 2 μl each. Injections were made at 150‐s intervals with a duration of 4 s and a stirring speed of 750 rpm. The reference power was set to 10 μcal/s; the feedback mode was set to high. The raw titration data were integrated with NITPIC (Keller et al, [2012]), globally fitted with SEDPHAT (Zhao et al, [2015]), and plotted with GUSSI (Brautigam, [2015]).

[1] = tested on: HsFIP200 Claw domain (CD); assay: Microscopy-based on-bead protein-protein interaction assay, GST-FIP200 CD beads; format: binding, Homo sapiens; conditions: 1 μM HsC53 variant, 2 independent replicates containing 2 technical replicates
Protocol: (§2) Glutathione‐Sepharose 4B bead slurry (Cytiva, average diameter 90 μm) was washed and diluted 10 times in HEPES buffer (25 mM HEPES pH 7.5, 150 mM NaCl, 1 mM DTT). The beads were then incubated for 30 min at 4°C (16 rpm horizontal rotation) with GST‐tagged bait proteins (2 μM of GST, GST‐FIP200 CD, GST‐ATG8A, GST‐GABARAP, GST‐AtUFM1, and GST‐HsUFM1). The beads were washed five times in 10 times the bead volume of HEPES buffer. The buffer was removed, and the beads were resuspended 1:20 in HEPES buffer. 10 μl of diluted beads was mixed with 20 μl of mCherry‐tagged binding partner at a concentration of 1.5 μM (0.5 μl bead slurry and 1 μM binding partner final concentrations) with or without competitor, as stated in the relative experiment. […]
(§3) From images acquired from a Zeiss LSM700 confocal microscope, the quantification of fluorescence was performed in ImageJ (Schindelin et al, [2012]) by drawing a line across each bead and taking the maximum gray value along the line. The maximum gray value for any given pixel represents the fluorescence intensity.
(§4) For images acquired from a Zeiss LSM800 confocal microscope, we used a custom Fiji Macro. […] In the end, the mean fluorescent intensities were exported out and used for quantification.
(§5) For each method, the fluorescence intensity was normalized against the mean of the control condition.

GABARAP = assay: Isothermal titration calorimetry, GABARAP titrated with HsC53 variants; format: binding, human; conditions: ITC, 25°C, 50 mM sodium phosphate pH 7.0, 100 mM NaCl; GABARAP 40 or 70 μM in cell; global analysis of 5 titrations, hetero-association model A + B; read-out: KD, best-fit value (ITC, GABARAP)
Protocol: as §1

GST-ATG8A = assay: Microscopy-based on-bead protein-protein interaction assay, GST-ATG8A beads; format: binding, Arabidopsis thaliana; conditions: 1 μM mCherry-tagged C53 (AtC53 variants per Appendix Fig S10A); normalized fluorescence; mean average; 3 replicates
Protocol: as §2, §3, §4, §5

GST-GABARAP = assay: Microscopy-based on-bead protein-protein interaction assay, GST-GABARAP beads; format: binding, human; conditions: 1 μM mCherry-tagged C53 (HsC53 variants per Appendix Fig S10B); normalized fluorescence; mean average; 3 replicates
Protocol: as §2, §3, §4, §5

[2] = tested on: GST-HsUFM1 / mCh-HsC53 interaction; assay: On-bead competition of the HsUFM1-HsC53 interaction; format: binding, Homo sapiens; conditions: 1 μM HsC53; cAIM peptide 0-100 μM; UBA5 LIR peptide or GABARAP 100 μM
Protocol: as §2, §3, §4, §5

B1: HsC53^wt: recombinant Homo sapiens C53 (CDK5RAP3), wild type (protein)
chain: MEDHQHVPIDIQTSKLLDWLVDRRHCSLKWQSLVLTIREKINAAIQDMPESEEIAQLLSGSYIHYFHCLRILDLLKGTEASTKNIFGRYSSQRMKDWQEIIALYEKDNTYLVELSSLLVRNVNYEIPSLKKQIAKCQQLQQEYSRKEEECQAGAAEMREQFYHSCKQYGITGENVRGELLALVKDLPSQLAEIGAAAQQSLGEAIDVYQASVGFVCESPTEQVLPMLRFVQKRGNSTVYEWRTGTEPSVVERPHLEELPEQVAEDAIDWGDFGVEAVSEGTDSGISAEAAGIDWGIFPESDSKDPGGDGIDWGDDAVALQITVLEAGTQAPEGVARGPDALTLLEYTETRNQFLDELMELEIFLAQRAVELSEEADVLSVSQFQLAPAILQGQTKEKMVTMVSVLEDLIGKLTSLQLQHLFMILASPRYVDRVTEFLQQKLKQSQLLALKKELMVQKQQEALEEQAALEPKLDLLLEKTKELQKLIEADISKRYSGRPVNLMGTSL
modifications: left off: His6, N-terminal, state not stated
notes: recombinant Homo sapiens C53 (CDK5RAP3), wild type
- Binding to UFM1 by ITC (in words) (HsUFM1): did not detect appreciable binding

B2: HsC53^cAIM: HsC53^(IDWG267WDGI, IDWG292WDGI, IDWG310WDGI) (protein)
chain: B1 chain with I267W, W269G, G270I, I292W, W294G, G295I, I310W, W312G, G313I
- FIP200 interaction compared with C53 wild type (in words) [1]: stronger interaction

B3: C53^cAIM: text label without species: HsC53^cAIM with GABARAP (ITC, beads), AtC53^cAIM with GST-ATG8 (protein)
chain: B1 chain with I267W, W269G, G270I, I292W, W294G, G295I, I310W, W312G, G313I
- Kd (GABARAP): 11.2 µM
- Recruited more efficiently to GST-ATG8 than the respective C53 wild-type protein (GST-ATG8A): 22%
- Recruited more efficiently to GST-GABARAP than the respective C53 wild-type protein (GST-GABARAP): 35%

B4: GABARAP: human ATG8 isoform GABARAP, used at 100 µM as competitor (protein)
chain: MKFVYKEEHPFEKRRSEGEKIRKKYPDRVPVIVEKAPKARIGDLDKKKYLVPSDLTVGQFYFLIRKRIHLRAEDALFFFVNNVIPPTSATMGQLYQEHHEEDFFLYIAYSDESVYGL
modifications: left off: GST, N-terminal, kept
- Competition of the HsC53-HsUFM1 interaction (in words) [2]: able to disrupt
